Measured values reported in patent US20040233833.

How the values were obtained:
REGγ(K188D) = REGγ(K188D) (UniProt P61289)
REGγ(K188E) = REGγ(K188E) (UniProt P61289)
REGγ(K188F) = REGγ(K188F) (UniProt P61289)
REGγ(K188H) = REGγ(K188H) (UniProt P61289)
REGγ(K188I) = REGγ(K188I) (UniProt P61289)
REGγ(K188N) = REGγ(K188N) (UniProt P61289)
REGγ(K188P) = REGγ(K188P) (UniProt P61289)
REGγ(K188Q) = REGγ(K188Q) (UniProt P61289)
REGγ(K188R) = REGγ(K188R) (UniProt P61289)
REGγ(K188S) = REGγ(K188S) (UniProt P61289)
Sequence of REGγ(K188S) (P61289 whole entry K188S): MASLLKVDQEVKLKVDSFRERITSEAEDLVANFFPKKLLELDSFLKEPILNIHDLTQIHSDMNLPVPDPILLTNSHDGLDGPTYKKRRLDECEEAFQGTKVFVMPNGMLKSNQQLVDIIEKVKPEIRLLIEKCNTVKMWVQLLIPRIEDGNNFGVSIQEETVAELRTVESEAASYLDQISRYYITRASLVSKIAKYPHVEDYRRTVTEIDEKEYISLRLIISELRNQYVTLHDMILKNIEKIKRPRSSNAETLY

Sequence of REGγ(K188R) (P61289 whole entry K188R): as the sequence (P61289 whole entry K188S) above, with S188R counted along it
Sequence of REGγ(K188E) (P61289 whole entry K188E): as the sequence (P61289 whole entry K188S) above, with S188E counted along it
Sequence of REGγ(K188N) (P61289 whole entry K188N): as the sequence (P61289 whole entry K188S) above, with S188N counted along it
Sequence of REGγ(K188I) (P61289 whole entry K188I): as the sequence (P61289 whole entry K188S) above, with S188I counted along it
Sequence of REGγ(K188F) (P61289 whole entry K188F): as the sequence (P61289 whole entry K188S) above, with S188F counted along it
Sequence of REGγ(K188H) (P61289 whole entry K188H): as the sequence (P61289 whole entry K188S) above, with S188H counted along it
Sequence of REGγ(K188Q) (P61289 whole entry K188Q): as the sequence (P61289 whole entry K188S) above, with S188Q counted along it
Sequence of REGγ(K188P) (P61289 whole entry K188P): as the sequence (P61289 whole entry K188S) above, with S188P counted along it
Sequence of REGγ(K188D) (P61289 whole entry K188D): as the sequence (P61289 whole entry K188S) above, with S188D counted along it

20S proteasome (human red blood cell proteasomes)
Stimulation of cleavage (x-fold), LLE-βNA (REGγ(K188D)): 9 x-fold
Stimulation of cleavage (x-fold), LLVY(SEQ ID NO: 1)-MCA (REGγ(K188D)): 14 x-fold
Stimulation of cleavage (x-fold), LLVY-MCA (REGγ(K188D)): 14 x-fold
Stimulation of cleavage (x-fold), LRR-MCA (REGγ(K188D)): 15 x-fold
Stimulation of cleavage (x-fold), LY-MCA (REGγ(K188D)): 3 x-fold
Stimulation of cleavage (x-fold), VLK-MCA (REGγ(K188D)): 6 x-fold
Stimulation of cleavage (x-fold), YVAD(SEQ ID NO: 9)-MCA (REGγ(K188D)): 8 x-fold
hydrolysis of the 21-residue peptide P21 by the proteasome (HPLC) (REGγ(K188D)): REGγ(K188E or D) and REGα markedly increased sunstrate consumption
% Degraded, substrate F1-EPQPQ (SEQ ID NO: 15), 5 hr (REGγ(K188E)): 80%
% Degraded, substrate F1-KSQPQ (SEQ ID NO: 16), 5 hr (REGγ(K188E)): 80%
% Degraded, substrate F1-QHQ, 5 hr (REGγ(K188E)): 50%
% Degraded, substrate F1-QPQ, 5 hr (REGγ(K188E)): 50%
% Degraded, substrate F1-QQQ, 5 hr (REGγ(K188E)): > 95%
Stimulation of cleavage (x-fold), AAF-MCA (REGγ(K188E)): 4 x-fold
Stimulation of cleavage (x-fold), DEVD(SEQ ID NO: 8)-MCA (REGγ(K188E)): 8 x-fold
Stimulation of cleavage (x-fold), FSR-MCA (REGγ(K188E)): 7 x-fold
Stimulation of cleavage (x-fold), IEGR(SEQ ID NO: 5)-MCA (REGγ(K188E)): 2 x-fold
Stimulation of cleavage (x-fold), IETD(SEQ ID NO: 6)-MCA (REGγ(K188E)): 21 x-fold
Stimulation of cleavage (x-fold), LGHD(SEQ ID NO: 7)-MCA (REGγ(K188E)): 10 x-fold
Stimulation of cleavage (x-fold), LLE-βNA (REGγ(K188E)): 9 x-fold
Stimulation of cleavage (x-fold), LLVY(SEQ ID NO: 1)-MCA (REGγ(K188E)): 14 x-fold
Stimulation of cleavage (x-fold), LLVY-MCA (REGγ(K188E)): 14 x-fold
Stimulation of cleavage (x-fold), LRR-MCA (REGγ(K188E)): 15 x-fold
Stimulation of cleavage (x-fold), LY-MCA (REGγ(K188E)): 3 x-fold
Stimulation of cleavage (x-fold), VLK-MCA (REGγ(K188E)): 6 x-fold
Stimulation of cleavage (x-fold), YVAD(SEQ ID NO: 9)-MCA (REGγ(K188E)): 7 x-fold
hydrolysis of the 21-residue peptide P21 by the proteasome (HPLC) (REGγ(K188E)): REGγ(K188E or D) and REGα markedly increased sunstrate consumption
Stimulation of cleavage (x-fold), LLE-βNA (REGγ(K188F)): 4 x-fold
Stimulation of cleavage (x-fold), LLVY-MCA (REGγ(K188F)): 4 x-fold
Stimulation of cleavage (x-fold), LRR-MCA (REGγ(K188F)): 13 x-fold
Stimulation of cleavage (x-fold), LLE-βNA (REGγ(K188H)): 4 x-fold
Stimulation of cleavage (x-fold), LLVY-MCA (REGγ(K188H)): 5 x-fold
Stimulation of cleavage (x-fold), LRR-MCA (REGγ(K188H)): 14 x-fold
Stimulation of cleavage (x-fold), LLE-βNA (REGγ(K188I)): 3 x-fold
Stimulation of cleavage (x-fold), LLVY-MCA (REGγ(K188I)): 2 x-fold
Stimulation of cleavage (x-fold), LRR-MCA (REGγ(K188I)): 12 x-fold
Stimulation of cleavage (x-fold), LLE-βNA (REGγ(K188N)): 5 x-fold
Stimulation of cleavage (x-fold), LLVY-MCA (REGγ(K188N)): 5 x-fold
Stimulation of cleavage (x-fold), LRR-MCA (REGγ(K188N)): 14 x-fold
Stimulation of cleavage (x-fold), LLE-βNA (REGγ(K188P)): 1 x-fold
Stimulation of cleavage (x-fold), LLVY-MCA (REGγ(K188P)): 1 x-fold
Stimulation of cleavage (x-fold), LRR-MCA (REGγ(K188P)): 12 x-fold
Stimulation of cleavage (x-fold), LLE-βNA (REGγ(K188Q)): 5 x-fold
Stimulation of cleavage (x-fold), LLVY-MCA (REGγ(K188Q)): 5 x-fold
Stimulation of cleavage (x-fold), LRR-MCA (REGγ(K188Q)): 14 x-fold
Stimulation of cleavage (x-fold), LLE-βNA (REGγ(K188R)): 0.7 x-fold
Stimulation of cleavage (x-fold), LLVY-MCA (REGγ(K188R)): 0.7 x-fold
Stimulation of cleavage (x-fold), LRR-MCA (REGγ(K188R)): 10 x-fold
Stimulation of cleavage (x-fold), LLE-βNA (REGγ(K188S)): 3 x-fold
Stimulation of cleavage (x-fold), LLVY-MCA (REGγ(K188S)): 3 x-fold
Stimulation of cleavage (x-fold), LRR-MCA (REGγ(K188S)): 14 x-fold
